Results: US20240199695A1 (TRANSFERT PLUS S E C, published 2024)
Non-standard residues stand in square brackets, D forms with d. No end group written: not given here. *: point of attachment. curcumin = curcumin, a phytochemical attached to the lysine side chains; Biotin = O=C1N[C@H]2[C@H](CS[C@H]2CCCCC(=O)*)N1; Nle = CCCC[C@H](N)C(=O)O

Key:
[1] = biological target: T1, sortilin expressed on cancer cells (SKOV3, ES-2 ovarian cancer cells) (UniProt Q99523 78-831, limits assumed)
T1 sequence (looked up): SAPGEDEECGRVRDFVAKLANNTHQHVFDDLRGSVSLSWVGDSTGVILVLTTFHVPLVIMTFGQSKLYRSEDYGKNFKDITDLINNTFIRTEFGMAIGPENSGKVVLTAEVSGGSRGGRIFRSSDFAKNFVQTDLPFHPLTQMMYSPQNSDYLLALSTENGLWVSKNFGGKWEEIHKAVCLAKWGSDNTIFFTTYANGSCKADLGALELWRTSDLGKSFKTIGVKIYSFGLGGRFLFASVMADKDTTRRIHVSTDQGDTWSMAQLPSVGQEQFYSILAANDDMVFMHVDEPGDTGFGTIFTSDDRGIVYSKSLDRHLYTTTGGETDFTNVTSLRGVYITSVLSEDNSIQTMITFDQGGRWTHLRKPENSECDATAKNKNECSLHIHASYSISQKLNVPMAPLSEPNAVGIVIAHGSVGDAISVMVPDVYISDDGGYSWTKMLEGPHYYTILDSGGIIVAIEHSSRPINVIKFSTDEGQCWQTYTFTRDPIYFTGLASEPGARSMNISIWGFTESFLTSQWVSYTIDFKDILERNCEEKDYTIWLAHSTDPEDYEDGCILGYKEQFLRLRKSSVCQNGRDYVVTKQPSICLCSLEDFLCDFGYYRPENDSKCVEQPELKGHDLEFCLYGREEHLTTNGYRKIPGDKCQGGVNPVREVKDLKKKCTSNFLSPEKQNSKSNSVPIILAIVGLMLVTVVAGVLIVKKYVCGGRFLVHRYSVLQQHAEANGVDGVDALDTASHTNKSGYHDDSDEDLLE

[2] = biological target: T1, sortilin expressed on cancer cells …; remark: listed apart in the source
[3] = biological target: T1, sortilin expressed on cancer cells …; remark: listed apart in the source
[4] = biological target: T1, sortilin expressed on cancer cells …; remark: listed apart in the source
soluble form of sortilin = biological target: T2, soluble form of sortilin (UniProt Q99523 78-755, limits assumed); experiment: SPR; biotinylated KBP-103 on a streptavidin chip, soluble sortilin injected
T2 construct: also called soluble sortilin; receptor sortilin
T2 sequence (looked up): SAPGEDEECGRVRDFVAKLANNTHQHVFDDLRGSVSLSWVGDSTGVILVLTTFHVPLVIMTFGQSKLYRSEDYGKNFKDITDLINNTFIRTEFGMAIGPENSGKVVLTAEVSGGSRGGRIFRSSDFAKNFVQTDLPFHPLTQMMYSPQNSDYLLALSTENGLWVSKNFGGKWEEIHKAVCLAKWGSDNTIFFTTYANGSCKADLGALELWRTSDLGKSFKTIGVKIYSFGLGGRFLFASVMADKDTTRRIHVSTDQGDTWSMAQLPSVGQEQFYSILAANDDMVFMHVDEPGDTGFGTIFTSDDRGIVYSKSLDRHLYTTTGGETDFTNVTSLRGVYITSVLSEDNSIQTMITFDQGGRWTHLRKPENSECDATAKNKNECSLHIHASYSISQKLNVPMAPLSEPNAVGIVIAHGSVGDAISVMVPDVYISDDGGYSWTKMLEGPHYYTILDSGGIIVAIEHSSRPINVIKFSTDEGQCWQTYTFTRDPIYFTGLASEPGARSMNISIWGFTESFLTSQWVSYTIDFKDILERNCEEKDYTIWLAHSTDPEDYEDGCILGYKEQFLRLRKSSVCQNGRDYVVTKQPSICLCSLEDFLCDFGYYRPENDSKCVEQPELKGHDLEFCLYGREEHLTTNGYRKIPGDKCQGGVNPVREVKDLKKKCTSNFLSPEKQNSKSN
Procedure: Biotinylated Katana peptide was immobilized on a streptavidin sensor chip. A. Soluble sortilin was then injected over the immobilized peptide. The surface plasmon resonance signal was then monitored over time.
Surface plasmon resonance (SPR) was first used to investigate whether these peptides could be recognized by sortilin. For this approach, biotin was added on the C-terminal end of the Katana-Biopharma peptide during peptide synthesis. The biotinylated-peptide (KBP-103) was then immobilized on a streptavidin sensor chip using recommended procedures from the manufacturer. Increasing concentrations of a soluble form of sortilin was then injected over the sensor chip. Interactions between immobilized KBP-103 and the receptor sortilin was then monitored in real time. A representative interaction curve is shown in FIG. 1, and from the sensorgram curves the affinity constant as well as Ka and Kd were determined and are indicated in Table 2. Affinity constants (KD, […]) were extracted from various injections using the BIA evaluation software.

[5] = biological target: T1, sortilin expressed on cancer cells …; experiment: cell-based or functional assay

Molecule: Neurotensin (from UniProt P30990 151-163) (peptide)
- inhibition of KBC106 fluorescence intensity (RFU) in ES-2 cells by neurotensin (bar NT) [continued) C] [1]: 52%
- decrease of the late apoptosis induced by 2 uM KBA-201 in SKOV3 cells by 10 uM NT [2]: 45.5%
- decrease of the late apoptosis induced by 2 uM KBA-105 in SKOV3/Luc cells by 10 uM NT [3]: 47.5%

Molecule: Progranulin (from UniProt P28799 18-593) (ligand)
- inhibition of KBC106 fluorescence intensity (RFU) in ES-2 cells by progranulin [continued) C] [1]: 81.5%
- inhibition of KBB106 accumulation (% of control) in ovarian cancer cells by progranulin [4]: 52%
- decrease of the late apoptosis induced by 2 uM KBA-201 in SKOV3 cells by 1.2 nM progranulin [2]: 55%

B1: KBP-103: IKLSGGVQAKAGVINMFKSESYK(Biotin) (peptide)
peptide: IKLSGGVQAKAGVINMFKSESYK(Biotin)
notes: Immobilised on a streptavidin sensor chip in the SPR assay; also called biotinylated-peptide; Katana peptide
- Kd (soluble form of sortilin): 25.5 nM
- koff (soluble form of sortilin): 0.0174 s⁻¹
- kon (soluble form of sortilin): 683000 M⁻¹ s⁻¹

Molecule: Ac-GVRAK(curcumin)AGVRN[Nle]FK(curcumin)SESY [KBC-106 (2:1): Acetyl-GVRAK(curcumin)AGVRN(Nle)FK(curcumin)SESY]
- relative fluorescence (RFU) of ES-2 cells after KBC106 against unconjugated curcumin (live imaging) [5]: 2.3 fold
